Target: the molecule itself
Experiment: AUC

B1: Nep1 from Methanocaldococcus jannaschii (native protein) (enzyme, UniProt Q57977 2-205, looked up)
chain: TYNIILAKSALELIPEEIKNKIRKSRVYKYDILDSNYHYKAMEKLKDKEMRGRPDIIHISLLNILDSPINHEKKLNIYIHTYDDKVLKINPETRLPRNYFRFLGVMEKVLKGERNHLIKMEEKTLEDLLNEINAKKIAIMTKTGKLTHPKLLKEYDTFIIGGFPYGKLKINKEKVFGDIKEISIYNKGLMAWTVCGIICYSLSF
stoichiometry N: 2

Source: article PMC2275143 (Nucleic Acids Research, 2008)
